Assays:
[1] = biological target: C-terminal fragment (C-CPE) of Clostridium perfringens enterotoxin (CPE) (Clostridium perfringens, UniProt P01558); details: read-out: KD value
[2] = GlcT enzyme activity (specific activity) of cell-free synthesized human GlcT; details: GlcT produced by liposome method with porcine brain lipid mixture
[3] = biological target: T1, human claudin-4 (residue: 1 to 183) synthesized in a cell-free system (human, UniProt O14493 1-183)
T1 sequence: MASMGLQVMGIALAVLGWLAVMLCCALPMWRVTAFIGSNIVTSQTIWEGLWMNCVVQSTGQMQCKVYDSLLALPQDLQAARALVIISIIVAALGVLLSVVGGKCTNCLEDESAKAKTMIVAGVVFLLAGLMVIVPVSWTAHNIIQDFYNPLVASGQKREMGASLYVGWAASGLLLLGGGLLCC

B1: human claudin-4: Human claudin-4 (residue 1 to 183), 4-transmembrane tight junction protein produced by the cell-free lipid-detergent method (protein, UniProt O14493 1-183, looked up, fragment)
chain: MASMGLQVMGIALAVLGWLAVMLCCALPMWRVTAFIGSNIVTSQTIWEGLWMNCVVQSTGQMQCKVYDSLLALPQDLQAARALVIISIIVAALGVLLSVVGGKCTNCLEDESAKAKTMIVAGVVFLLAGLMVIVPVSWTAHNIIQDFYNPLVASGQKREMGASLYVGWAASGLLLLGGGLLCC
B1 gave a Kd [1] of 3.4 nM.

B2: GlcT: Human glucosylceramide synthase, estimated 3-transmembrane enzyme, produced in a cell-free system with lipids (protein, UniProt Q16739 1-394, looked up)
Ceramide glucosyltransferase: MALLDLALEGMAVFGFVLFLVLWLMHFMAIIYTRLHLNKKATDKQPYSKLPGVSLLKPLKGVDPNLINNLETFFELDYPKYEVLLCVQDHDDPAIDVCKKLLGKYPNVDARLFIGGKKVGINPKINNLMPGYEVAKYDLIWICDSGIRVIPDTLTDMVNQMTEKVGLVHGLPYVADRQGFAATLEQVYFGTSHPRYYISANVTGFKCVTGMSCLMRKDVLDQAGGLIAFAQYIAEDYFMAKAIADRGWRFAMSTQVAMQNSGSYSISQFQSRMIRWTKLRINMLPATIICEPISECFVASLIIGWAAHHVFRWDIMVFFMCHCLAWFIFDYIQLRGVQGGTLCFSKLDYAVAWFIRESMTIYIFLSALWDPTISWRTGRYRLRCGGTAEEILDV
With B2 the “specificity (specific activity) relative to sample produced with GalCer (5%), cholesterol (5%), egg PC (90%)” value [2] was “approximately 2.7 times higher”.

B3: GST tag-added C-CPE (ligand)
chain: RCVLTVPSTDIEKEILDLAAATERLNLTDALNSNPAGNLYDWRSSNSYPWTQKLNLHLTITATGQKYRILASKIVDFNIYSNNFNNLVKLEQSLGDGVKDHYVDISLDAGQYVLVMKANSSYSGNYPYSILFQKF
Work on B3 yielded a Kd [3] of 3.4 nM.

From US11618777B2, “Method of manufacturing membrane protein and utilization thereof” (priority 2015, dated 2023)
